This note sets out measurements from patent publication US20260234242A1 (HAINAN SIMCERE ZAIMING PHARMACEUTICAL, published 2026).

The target of test [1] is T1, human CDH6 with EC2 removed, on HEK293T cells (HEK293T-hCDH6-EC2 deletion) (human, UniProt P55285 54-790).
T1 construct: Signal peptide not removed here
T1 sequence: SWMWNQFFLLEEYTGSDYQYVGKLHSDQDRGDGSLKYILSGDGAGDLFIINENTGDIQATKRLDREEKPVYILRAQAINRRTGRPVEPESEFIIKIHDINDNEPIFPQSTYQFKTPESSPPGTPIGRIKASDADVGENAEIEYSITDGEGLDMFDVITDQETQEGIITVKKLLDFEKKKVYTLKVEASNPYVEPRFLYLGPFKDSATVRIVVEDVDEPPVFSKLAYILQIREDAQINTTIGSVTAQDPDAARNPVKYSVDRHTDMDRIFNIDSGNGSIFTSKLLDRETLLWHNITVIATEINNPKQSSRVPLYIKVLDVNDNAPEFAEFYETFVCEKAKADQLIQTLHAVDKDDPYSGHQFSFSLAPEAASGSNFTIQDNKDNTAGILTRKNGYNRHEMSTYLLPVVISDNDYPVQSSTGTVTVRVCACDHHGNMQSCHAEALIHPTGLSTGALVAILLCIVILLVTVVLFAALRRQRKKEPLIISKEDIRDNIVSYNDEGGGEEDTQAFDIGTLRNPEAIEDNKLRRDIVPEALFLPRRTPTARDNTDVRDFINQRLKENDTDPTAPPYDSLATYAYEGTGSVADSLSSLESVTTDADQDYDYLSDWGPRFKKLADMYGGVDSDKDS
Nature of the test: FACS, HEK293T-hCDH6-EC2 deletion cells. For orientation: In flow cytometry, cells or beads pass a laser one at a time.

In test [2] the target is T2, his-tagged human CDH6 extracellular region protein (hCDH6 ECD-his) (human, UniProt P55285 19-615).
T2 construct: also called Human CDH6-his; hCDH6-his; not shown: his tag
T2 sequence: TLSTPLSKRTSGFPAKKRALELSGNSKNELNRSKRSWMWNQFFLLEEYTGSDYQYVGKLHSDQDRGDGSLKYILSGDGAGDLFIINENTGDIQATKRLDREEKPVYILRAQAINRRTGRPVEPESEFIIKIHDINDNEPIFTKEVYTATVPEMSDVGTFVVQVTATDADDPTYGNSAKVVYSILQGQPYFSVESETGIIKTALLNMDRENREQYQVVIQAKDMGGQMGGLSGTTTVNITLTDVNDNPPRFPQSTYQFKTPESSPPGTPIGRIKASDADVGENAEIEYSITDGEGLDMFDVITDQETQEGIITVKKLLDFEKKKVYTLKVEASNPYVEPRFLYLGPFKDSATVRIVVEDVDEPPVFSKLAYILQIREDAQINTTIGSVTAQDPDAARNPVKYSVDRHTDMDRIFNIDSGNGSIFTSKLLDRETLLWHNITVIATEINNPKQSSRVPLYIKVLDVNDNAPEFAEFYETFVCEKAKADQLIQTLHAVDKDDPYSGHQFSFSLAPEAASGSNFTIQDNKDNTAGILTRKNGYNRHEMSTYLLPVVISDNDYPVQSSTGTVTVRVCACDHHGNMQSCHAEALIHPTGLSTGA
As to the kind of experiment: ELISA, coated antigen; ELISA, coated hCDH6-his; later run beside the hCDH6-14 humanized antibodies (Table 19). (In an ELISA, binding on a coated surface is turned into a signal by an enzyme label.)

For test [3], the target named is T3, human CDH6 on tumor cells (OVCAR3 cells, PA-1 cells) (human, UniProt P55285 54-790).
T3 sequence: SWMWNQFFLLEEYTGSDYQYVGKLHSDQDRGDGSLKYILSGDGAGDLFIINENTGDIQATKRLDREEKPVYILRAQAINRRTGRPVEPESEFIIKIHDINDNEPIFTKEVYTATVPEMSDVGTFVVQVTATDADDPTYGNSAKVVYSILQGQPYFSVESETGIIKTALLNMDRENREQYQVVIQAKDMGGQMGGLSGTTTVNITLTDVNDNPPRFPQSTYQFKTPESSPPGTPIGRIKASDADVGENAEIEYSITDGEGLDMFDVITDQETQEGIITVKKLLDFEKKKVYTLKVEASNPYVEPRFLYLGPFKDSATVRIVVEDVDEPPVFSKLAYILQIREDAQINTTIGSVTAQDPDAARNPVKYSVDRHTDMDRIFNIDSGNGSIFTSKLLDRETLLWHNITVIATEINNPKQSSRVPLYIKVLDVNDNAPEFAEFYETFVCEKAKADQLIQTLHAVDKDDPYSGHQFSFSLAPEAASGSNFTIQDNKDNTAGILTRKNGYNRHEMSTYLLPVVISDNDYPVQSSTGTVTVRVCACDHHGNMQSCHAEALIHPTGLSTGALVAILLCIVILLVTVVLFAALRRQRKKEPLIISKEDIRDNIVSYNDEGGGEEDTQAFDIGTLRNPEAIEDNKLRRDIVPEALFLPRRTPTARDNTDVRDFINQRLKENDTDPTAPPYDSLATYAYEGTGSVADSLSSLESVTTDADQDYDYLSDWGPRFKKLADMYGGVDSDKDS
Nature of the test: FACS, PA-1 cells. In outline: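 Chimeric or humanized hCDH6-14 antibody dilutions were incubated with PA-1 cells (moderate CDH6 expressors; OVCAR3 as high expressors) in PBS + 2% FBS for 1 h at 4 °C. A second 1 h step at 4 °C followed. Flow-cytometric MFI was curve-fitted to give EC50.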

Broadly, the EC50 is the concentration needed to bring the measured effect to its halfway point. Read a low EC50 as higher potency in that assay.

B1: CHI-CDH6-4 (antibody, human IgG1, kappa, V domains shown)
VH: QVQLQQSGPELVKPGASVKISCKASGYAFSNFWMNWVKQRPGKGLEWIGWIYPGDGDTNYNGKFKDKATLTADKSSSTAYIQLSSLTSEDSAVYFCARLYDAWGFFDYWGQGTTLTVSS
VL: QIVLTQSPAIMSASPGQKVTITCSASSSVNYMHWYQQKLGSSPKLWIYDKSKLAPGVPARFSGSGSGTSYSLTISSMEAEDAASYFCHQWSSYPPMTFGGGTKLEIKR
notes: also called CH1-CDH6-4; chimeric antibody of murine CDH6-4
As for B1, the binding result in test [1] is reported as “no binding”.

B2: CHI-CDH6-14 (antibody, human IgG1, kappa, V domains shown)
VH: QIQLQQSGPELVKPGTSVKISCKASGYTFTDNYINWVRQRPGQGLEWIGWIYPGTGNSYYNEKFKGKATLTVDTSSSTAYMQFSSLTSEDSAVYLCASSYGDSFDYWGQGTTLTVSS
VL: DIQMTQTTSSLSASLGNRVTISCRASQDIRNYLNWYQQKPDGTFKLLISYTSRLHSGVPSRFSGSGSGTDYSLTVSNLEPEDIATYYCQQYSQLPWTFGGGSRLEIKR
notes: also called CHI-hCDH6-14; CH1-CDH6-14
B2 returned an EC50 in test [2] of 0.034 nM. In test [3], the EC50 came to 0.27 nM and the “Max MFI” value is 4260 MFI.
